The values below are quoted from earlier work in publication PMC3338619, “Ligand Binding Study of Human PEBP1/RKIP: Interaction with Nucleotides and Raf-1 Peptides Evidenced by NMR and Mass Spectrometry” (PLoS ONE, 2012).

What is called Kd is a measure of binding affinity in units of concentration.

This data set deals with Raf-1 tri-phosphorylated peptide (Homo sapiens) (UniProt P04049).

As for rPEBP1 (from UniProt P31044), the dissociation constant Kd was 20 µM.
